Data reported in US20240382605A1, “CONJUGATED OLIGONUCLEOTIDES AND USES THEREOF” (Ionis Pharmaceuticals, Inc., priority 2021, published 2024).

Columns and labels:
[1] = Example 8: hematology assays / blood cell counts in hTFR^KI/+ knock in mice; assay type: in vivo, mouse; conditions: blood day 15;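 also: mice given conjugated modified oligonucleotide, three doses total, blood cell counts measured at sacrifice, PBS-treated group of 4 mice serves as negative control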
Excerpt: (§1) Each mouse received an intravenous (i.v.) administration or subcutaneous (s.c.) administration of conjugated modified oligonucleotide for a total of 3 doses (on Days 1, 5, and 9) at doses indicated in the table below. […] A group of 4 mice received PBS as a negative control.
Blood obtained from mice on the day the mice were sacrificed (day 15) were sent to IDEXX BioResearch for measurement of blood cell counts. Counts taken include red blood cell (RBC) count, white blood cell (WBC) count, hemoglobin (HGB), hematocrit (HCT), Mean corpuscular volume (MCV), mean corpuscular hemoglobin (MCH), and mean corpuscularhemoglobin concentration (MCHC). Individual white blood cell counts, such as that of monocytes (MON), neutrophils (NEU), lymphocytes (LYM), eosinophils (EOS), basophils (BAS), reticulocytes, and platelets were evaluated.

mouse DMPK RNA = experiment: Example 8: mouse DMPK RNA and ED50 in tissues of hTFR^KI/+ knock in mice, multiple dose (RTPCR, day 15); assay type: in vivo;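 also: conjugated oligonucleotide given as three doses to hTFR^KI/+ knock-in mice, tissues taken at day 15 and mouse DMPK RNA quantified by real-time RT-PCR against PBS-treated controls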
Description: The activity and tolerability of modified oligonucleotides conjugated to CD71 bicycle ligands were tested in hTFR^KI/+ knock in mice (described herein above).
as §1
The mice were sacrificed six days post final administration (on day 15), and RNA was extracted from various muscle tissues (including quadriceps (Quad), tibialis anterior (TA), diaphragm, triceps, heart, gastrocnemius (gastroc)), aorta, sciatic nerve, and liver tissue for quantitative real time RTPCR analysis to measure amount of mouse DMPK RNA using mouse primer probe set RTS3181 (described herein above).

[2] = Example 8: plasma chemistry markers in hTFR^KI/+ knock in mice; assay type: in vivo, mouse; conditions: plasma day 15;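 also: plasma levels read on an automated clinical chemistry analyzer after three doses of conjugated modified oligonucleotide, with a PBS-treated group as negative control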
Excerpt: as §1
To evaluate the effect of modified oligonucleotides on liver and kidney function, plasma levels of albumin (ALB), alanine aminotransferase (ALT), aspartate aminotransferase (AST), blood urea nitrogen (BUN), total bilirubin (TBIL), total Protein (PROT), Creatine (CREAT), and Creatine Kinase (CK) were measured on the day the mice were sacrificed (day 15) using an automated clinical chemistry analyzer (Hitachi Olympus AU400c, Melville, NY).

1590463 BCY17896 (CPXDAYLGCXSYCX; not fully specified; non-natural residues; cyclised or stapled)
Mean corpuscular volume (MCV) ([1]; i.v. 1 mg/kg on Days 1, 5, 9): 40 fL
hematocrit (HCT) ([1]; i.v. 1 mg/kg on Days 1, 5, 9): 47%
hemoglobin (HGB) ([1]; i.v. 1 mg/kg on Days 1, 5, 9): 15 g/dL
mean corpuscular hemoglobin (MCH) ([1]; i.v. 1 mg/kg on Days 1, 5, 9): 13 pg
mean corpuscular hemoglobin concentration (MCHC) ([1]; i.v. 1 mg/kg on Days 1, 5, 9): 32 g/dL
red blood cell (RBC) count ([1]; i.v. 1 mg/kg on Days 1, 5, 9): 12 10^12/L
white blood cell (WBC) count ([1]; i.v. 1 mg/kg on Days 1, 5, 9): 8 10^3/μL
Mean corpuscular volume (MCV) ([1]; i.v. 10 mg/kg on Days 1, 5, 9): 41 fL
hematocrit (HCT) ([1]; i.v. 10 mg/kg on Days 1, 5, 9): 47%
hemoglobin (HGB) ([1]; i.v. 10 mg/kg on Days 1, 5, 9): 15 g/dL
mean corpuscular hemoglobin (MCH) ([1]; i.v. 10 mg/kg on Days 1, 5, 9): 13 pg
mean corpuscular hemoglobin concentration (MCHC) ([1]; i.v. 10 mg/kg on Days 1, 5, 9): 31 g/dL
red blood cell (RBC) count ([1]; i.v. 10 mg/kg on Days 1, 5, 9): 11 10^12/L
white blood cell (WBC) count ([1]; i.v. 10 mg/kg on Days 1, 5, 9): 9 10^3/μL
Diaphragm mouse DMPK RNA (% control) (mouse DMPK RNA; i.v. 1 mg/kg on Days 1, 5, 9): 60 % control
Gastrocnemius mouse DMPK RNA (% control) (mouse DMPK RNA; i.v. 1 mg/kg on Days 1, 5, 9): 75 % control
Heart mouse DMPK RNA (% control) (mouse DMPK RNA; i.v. 1 mg/kg on Days 1, 5, 9): 81 % control
Quadriceps mouse DMPK RNA (% control) (mouse DMPK RNA; i.v. 1 mg/kg on Days 1, 5, 9): 74 % control
Tibialis Anterior mouse DMPK RNA (% control) (mouse DMPK RNA; i.v. 1 mg/kg on Days 1, 5, 9): 84 % control
Diaphragm mouse DMPK RNA (% control) (mouse DMPK RNA; i.v. 10 mg/kg on Days 1, 5, 9): 16 % control
Gastrocnemius mouse DMPK RNA (% control) (mouse DMPK RNA; i.v. 10 mg/kg on Days 1, 5, 9): 28 % control
Heart mouse DMPK RNA (% control) (mouse DMPK RNA; i.v. 10 mg/kg on Days 1, 5, 9): 56 % control
Quadriceps mouse DMPK RNA (% control) (mouse DMPK RNA; i.v. 10 mg/kg on Days 1, 5, 9): 23 % control
Tibialis Anterior mouse DMPK RNA (% control) (mouse DMPK RNA; i.v. 10 mg/kg on Days 1, 5, 9): 28 % control
Creatine (CREAT) ([2]; i.v. 1 mg/kg on Days 1, 5, 9): 0.16 mg/dL
alanine aminotransferase (ALT) ([2]; i.v. 1 mg/kg on Days 1, 5, 9): 40 U/L
albumin (ALB) ([2]; i.v. 1 mg/kg on Days 1, 5, 9): 2.82 g/dL
aspartate aminotransferase (AST) ([2]; i.v. 1 mg/kg on Days 1, 5, 9): 111 U/L
blood urea nitrogen (BUN) ([2]; i.v. 1 mg/kg on Days 1, 5, 9): 24 mg/dL
total Protein (PROT) ([2]; i.v. 1 mg/kg on Days 1, 5, 9): 4.83 g/dL
total bilirubin (TBIL) ([2]; i.v. 1 mg/kg on Days 1, 5, 9): 0.12 mg/dL
Creatine (CREAT) ([2]; i.v. 10 mg/kg on Days 1, 5, 9): 0.16 mg/dL
alanine aminotransferase (ALT) ([2]; i.v. 10 mg/kg on Days 1, 5, 9): 34 U/L
albumin (ALB) ([2]; i.v. 10 mg/kg on Days 1, 5, 9): 2.70 g/dL
aspartate aminotransferase (AST) ([2]; i.v. 10 mg/kg on Days 1, 5, 9): 119 U/L
blood urea nitrogen (BUN) ([2]; i.v. 10 mg/kg on Days 1, 5, 9): 22 mg/dL
total Protein (PROT) ([2]; i.v. 10 mg/kg on Days 1, 5, 9): 4.57 g/dL
total bilirubin (TBIL) ([2]; i.v. 10 mg/kg on Days 1, 5, 9): 0.11 mg/dL
